Data on 1 protein can be found in article PMC9408933, “Discovery of the Key Mutation Site Influencing the Thermostability of Thermomyces lanuginosus Lipase by Rosetta Design Programs” (International Journal of Molecular Sciences, 2022).

Substrate in this data set: CCCCCCCCCCCCCCCC(=O)Oc1ccc([N+](=O)[O-])cc1
Description: p-nitrophenol release, Michaelis-Menten fit. The format is biochemical, Thermomyces lanuginosus. The settings on record: 37 °C, pH 9.0, 100 mM Tris-HCl, pNPP 0.08-10.00 mM, apparent Km. The text has this:
p-nitrophenol release, Michaelis-Menten fit on TLL (Thermomyces lanuginosus lipase)

As a reminder, the Km is the substrate concentration at which the rate is half of its maximum. Broadly, the Vmax is the top rate of the reaction or transport when substrate is in excess. For orientation: kcat means the maximal rate divided by the concentration of active sites. A word on the kcat/Km: it is the turnover number divided by the Michaelis constant.

B1: TLL (Thermomyces lanuginosus lipase) (Thermomyces lanuginosus) (protein)
chain: EVSQDLFNQFNLFAQYSAAAYCGKNNDAPAGTNITCTGNACPEVEKADATFLYSFEDSGVGDVTGFLALDNTNKLIVLSFRGSRSIENWIGNLNFDLKEINDICSGCRGHDGFTSSWRSVADTLRQKVEDAVREHPDYRVVFTGHSLGGALATVAGADLRGNGYDIDVFSYGAPRVGNRAFAEFLTVQTGGTLYRITHTNDIVPRLPPREFGYSHSSPEYWIKSGTLVPVTRNDIVKIEGIDATGGNNQPNIPDIPAHLWYFGLIGTCL
notes: N-terminal His-tag, secreted from Pichia pastoris GS115 (pPIC9K), Ni-NTA purified
For the protein B1, the Km is 160 ± 30 µM, the Vmax amounted to 297 µmol/min/mg, the kcat came out at 850 ± 11.8 s⁻¹ and the specificity constant (kcat/Km) was 5.31e+06 ± 74000 M⁻¹ s⁻¹.
